Data from article PMC4894655, “Three proliferating cell nuclear antigen homologues from Metallosphaera sedula form a head-to-tail heterotrimer” (Scientific Reports, 2016).
Read-outs that look alike come from different tables or passages of the source.

Legend:
[1] = target: SsoPCNA1:SsoPCNA2 heterodimer (Sulfolobus solfataricus) (UniProt P57766); assay: SPR; Biacore; MsePCNA2 or SsoPCNA2 immobilised on CM5, 1 μM MsePCNA1 or SsoPCNA1 applied, then MsePCNA3 or SsoPCNA3 injected at various concentrations; plateau signal fitted to a Langmuir isotherm; 10 mM HEPES-HCl pH 7.4, 150 mM NaCl
[2] = target: T1, MsePCNA1:MsePCNA2 heterodimer (Metallosphaera sedula, UniProt A4YCS6 1-247; A4YHP5 1-244); assay: as above
T1 construct: MsePCNA1 (Msed_0051), PCNA homologue of Metallosphaera sedula; as m1; MsePCNA2 (Msed_1792), PCNA homologue of Metallosphaera sedula; as m2; In SPR formed on the chip: MsePCNA2 immobilised on CM5, then 1 μM MsePCNA1 applied; In the pull-down and SEC formed in the mixture; Tag removal is said for the pull-down only; also called immobilised MsePCNA2 with MsePCNA1; MsePCNA1 and MsePCNA2 together; …
T1 sequence (looked up) 1: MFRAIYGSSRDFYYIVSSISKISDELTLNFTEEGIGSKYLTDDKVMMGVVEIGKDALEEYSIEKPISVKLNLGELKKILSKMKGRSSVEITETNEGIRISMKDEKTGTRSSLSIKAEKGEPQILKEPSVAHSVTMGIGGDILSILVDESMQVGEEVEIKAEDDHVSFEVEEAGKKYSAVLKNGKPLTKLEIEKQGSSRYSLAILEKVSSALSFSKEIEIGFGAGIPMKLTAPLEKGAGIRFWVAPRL
T1 sequence (looked up) 2: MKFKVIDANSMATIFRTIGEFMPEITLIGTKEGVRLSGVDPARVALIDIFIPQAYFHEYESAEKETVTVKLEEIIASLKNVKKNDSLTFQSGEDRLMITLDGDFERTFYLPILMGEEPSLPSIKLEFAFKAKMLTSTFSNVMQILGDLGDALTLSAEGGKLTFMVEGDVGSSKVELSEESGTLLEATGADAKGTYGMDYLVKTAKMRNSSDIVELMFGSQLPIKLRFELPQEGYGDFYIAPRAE

[3] = target: T2, SsoPCNA1:MsePCNA2 complex (Sulfolobus solfataricus | …, UniProt P57766 1-249; A4YHP5 1-244); assay: as above
T2 construct: SsoPCNA1, PCNA subunit 1 of Sulfolobus solfataricus; as m4; MsePCNA2 (Msed_1792), PCNA homologue of Metallosphaera sedula; as m2; Formed on the SPR chip: MsePCNA2 immobilised on CM5, then 1 μM SsoPCNA1 applied; also called immobilised MsePCNA2 that tethered SsoPCNA1
T2 sequence (looked up) 1: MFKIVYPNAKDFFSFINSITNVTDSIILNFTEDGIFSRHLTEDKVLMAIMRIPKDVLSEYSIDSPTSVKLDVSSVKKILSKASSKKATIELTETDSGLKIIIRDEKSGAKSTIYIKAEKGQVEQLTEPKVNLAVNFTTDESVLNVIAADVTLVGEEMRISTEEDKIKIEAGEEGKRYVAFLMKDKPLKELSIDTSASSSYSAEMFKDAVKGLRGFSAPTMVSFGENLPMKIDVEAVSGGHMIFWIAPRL
T2 sequence (looked up) 2: T1 sequence (looked up) 2

SsoPCNA2 [4] = target: T3, SsoPCNA2 (Sulfolobus solfataricus); assay: SPR; 5 nM MsePCNA1
T3 chain: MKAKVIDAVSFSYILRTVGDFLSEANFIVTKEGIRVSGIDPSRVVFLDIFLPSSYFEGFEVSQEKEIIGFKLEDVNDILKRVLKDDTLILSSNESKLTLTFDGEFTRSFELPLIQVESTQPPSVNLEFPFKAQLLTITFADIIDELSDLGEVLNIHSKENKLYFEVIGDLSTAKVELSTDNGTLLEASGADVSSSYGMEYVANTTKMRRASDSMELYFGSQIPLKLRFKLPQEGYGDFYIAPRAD

MsePCNA2 [5] = target: T4, MsePCNA2 (Metallosphaera sedula, UniProt A4YHP5 1-244); assay: SPR; 5 nM MsePCNA1
T4 chain: T1 sequence (looked up) 2

SsoPCNA2 [6] = target: T3, SsoPCNA2; assay: SPR; 5 nM MsePCNA1
MsePCNA2 [7] = target: T4, MsePCNA2; assay: SPR; 10 nM MsePCNA1
MsePCNA2 [8] = target: T4, MsePCNA2; assay: SPR; 20 nM MsePCNA1
MsePCNA2 [9] = target: T4, MsePCNA2; assay: SPR; 40 nM MsePCNA1
SsoPCNA2 [10] = target: T3, SsoPCNA2; assay: SPR; 10 nM MsePCNA1
MsePCNA2 [11] = target: T4, MsePCNA2; assay: SPR; 10 nM MsePCNA1
SsoPCNA2 [12] = target: T3, SsoPCNA2; assay: SPR; 20 nM MsePCNA1
MsePCNA2 [13] = target: T4, MsePCNA2; assay: SPR; 20 nM MsePCNA1
SsoPCNA2 [14] = target: T3, SsoPCNA2; assay: SPR; 40 nM MsePCNA1
MsePCNA2 [15] = target: T4, MsePCNA2; assay: SPR; 40 nM MsePCNA1
SsoPCNA2 [16] = target: T3, SsoPCNA2; assay: SPR; 50 nM MsePCNA1
SsoPCNA2 [17] = target: T3, SsoPCNA2; assay: SPR; 2.5 nM MsePCNA1
MsePCNA2 [18] = target: T4, MsePCNA2; assay: SPR; 2.5 nM MsePCNA1
SsoPCNA2 [19] = target: T3, SsoPCNA2; assay: SPR; 2.5 nM MsePCNA1
MsePCNA2 [20] = target: T4, MsePCNA2; assay: SPR; 2.5 nM MsePCNA1
MsePCNA2 [21] = target: T4, MsePCNA2; assay: SPR; 1.25 nM MsePCNA1
MsePCNA2 [22] = target: T4, MsePCNA2; assay: SPR; 1.25 nM MsePCNA1
SsoPCNA2 [23] = target: T3, SsoPCNA2; assay: SPR; Biacore; about 350 RU of MsePCNA2 or SsoPCNA2 immobilised on Sensor Chip CM5; MsePCNA1 or SsoPCNA1 injected (2.5, 5, 10, 20, 40 nM), kinetic fit; 10 mM HEPES-HCl pH 7.4, 150 mM NaCl
MsePCNA1 = target: T5, MsePCNA1 (Metallosphaera sedula, UniProt A4YCS6 1-247); assay: as above; details: both partners purified
T5 construct: MsePCNA1 (Msed_0051), PCNA homologue of Metallosphaera sedula; 'His6-tag-removed' is said for the pull-down only; also called Msed_0051; M. sedula PCNA homologue 1
T5 sequence (looked up): T1 sequence (looked up) 1

SsoPCNA1 = target: T6, SsoPCNA1 (Sulfolobus solfataricus, UniProt P57766 1-249); assay: as above; details: both partners purified
T6 construct: SsoPCNA1, PCNA subunit 1 of Sulfolobus solfataricus; also called S. solfataricus PCNA1
T6 sequence (looked up): T2 sequence (looked up) 1

## SsoPCNA3 (natural protein)
[1]
  Kd: 200 nM
[2]
  Kd: 190 nM
[3]
  Kd: 170 nM

B1: MsePCNA1 (natural protein)
chain: T1 sequence (looked up) 1
SsoPCNA2 [4]
  koff: 0.00132 s⁻¹
MsePCNA2 [5]
  koff: 0.00011 s⁻¹
SsoPCNA2 [6]
  Kd: 6.37 nM
MsePCNA2 [7]
  koff: 7.99e-05 s⁻¹
MsePCNA2 [8]
  koff: 5.79e-05 s⁻¹
MsePCNA2 [9]
  koff: 4.29e-05 s⁻¹
SsoPCNA2 [10]
  Kd: 7.02 nM
MsePCNA2 [11]
  Kd: 0.249 nM
SsoPCNA2 [12]
  Kd: 12.9 nM
MsePCNA2 [13]
  Kd: 0.215 nM
SsoPCNA2 [14]
  Kd: 36 nM
MsePCNA2 [15]
  Kd: 0.253 nM
SsoPCNA2 [16]
  Kd: 27.5 nM
SsoPCNA2 [17]
  koff: 0.00134 s⁻¹
MsePCNA2 [18]
  koff: 0.000121 s⁻¹
SsoPCNA2 [19]
  Kd: 6.81 nM
MsePCNA2 [20]
  Kd: 0.396 nM
MsePCNA2 [21]
  koff: 0.000128 s⁻¹
MsePCNA2 [22]
  Kd: 0.531 nM
SsoPCNA2 [23]
  Kd: 1.6 nM
  koff: 0.0012 s⁻¹
  kon: 130000 M⁻¹ s⁻¹

B2: MsePCNA2 (natural protein, Metallosphaera sedula, UniProt A4YHP5 1-244, looked up)
chain: T1 sequence (looked up) 2
notes: MsePCNA2 (Msed_1792), PCNA homologue of Metallosphaera sedula; 'His6-tag-removed' is said for the pull-down only; also called Msed_1792; M. sedula PCNA homologue 2
MsePCNA1
  Kd: 0.33 nM
  koff: 8.9e-05 s⁻¹
  kon: 280000 M⁻¹ s⁻¹
SsoPCNA1
  Kd: 1.8 nM
  koff: 0.00044 s⁻¹
  kon: 270000 M⁻¹ s⁻¹

B3: MsePCNA3 (natural protein, Metallosphaera sedula, UniProt A4YIY6 1-245, looked up)
chain: MRIAYANAMDFKTVIEALSKLIDEVTFTFTSSGLDVVAVDRAHISLIKLHFPKEAFEEFDVEDQFRFGFNTQYMLKVMASAKRKEKIEMESREESEIVIRMLGEPPREFTIRNIEVPIQELPELKLDFDVKAKITSGGFKKAVSEIATVSDSVEIDATEMEIKLRSKESTEIEVEFSKEMGGLQEIEVKKPSVSSYPSDYLEDVLVLTRLSGFLNLLFSEQKPLQLEFNMDNGGSVVYLLAPNVG
notes: MsePCNA3 (Msed_2250), PCNA homologue of Metallosphaera sedula; 'His6-tag-removed' is said for the pull-down only; also called Msed_2250; M. sedula PCNA homologue 3
[2]; both partners purified
  Kd: 43 nM
[3]; both partners purified
  Kd: 380 nM
